Reference: publication PMC6522346 (Science (New York, N.Y.), 2018)

Key:
Experiment in all cases: native MS
[1] = target: complex III (Bos taurus (endogenous in bovine mitochondria)) (UniProt P00157)
complex IV = target: complex IV
[2] = target: Anchor Cell Fusion Failure protein 1
native MS = target: the molecule itself

Chain of complex III (P00129 whole entry, looked up): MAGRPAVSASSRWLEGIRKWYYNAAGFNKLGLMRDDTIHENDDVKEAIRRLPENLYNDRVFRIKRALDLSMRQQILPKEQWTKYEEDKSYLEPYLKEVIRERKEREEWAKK
Chain of complex III (P00157 whole entry, looked up): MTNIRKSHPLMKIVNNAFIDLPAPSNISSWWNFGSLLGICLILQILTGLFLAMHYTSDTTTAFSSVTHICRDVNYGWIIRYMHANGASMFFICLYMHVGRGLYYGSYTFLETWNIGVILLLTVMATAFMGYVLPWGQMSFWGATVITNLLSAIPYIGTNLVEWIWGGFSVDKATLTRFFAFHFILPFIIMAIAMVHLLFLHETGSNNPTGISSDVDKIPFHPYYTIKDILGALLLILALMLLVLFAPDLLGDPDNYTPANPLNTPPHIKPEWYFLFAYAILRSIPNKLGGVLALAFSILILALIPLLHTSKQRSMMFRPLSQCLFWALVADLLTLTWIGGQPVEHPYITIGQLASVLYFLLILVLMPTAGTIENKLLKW

Row | Molecule | stoichiometry N (native MS) | other results
1 | complex III (from UniProt P00157;P00129) | – | stoichiometry N [1]: 2
2 | complex IV | – | stoichiometry N (complex IV): 2
3 | Anchor Cell Fusion Failure protein 1 (natural protein) | – | stoichiometry N [2]: 2
4 | CyoB (natural protein) MFGKLSLDAVPFHEPIVMVTIAGIILGGLALVGLITYFGKWTYLWKEWLTSVDHKRLGIMYIIVAIVMLLRGFADAIMMRSQQALASAGEAGFLPPHHYDQIFTAHGVIMIFFVAMPFVIGLMNLVVPLQIGARDVAFPFLNNLSFWFTVVGVILVNVSLGVGEFAQTGWLAYPPLSGIEYSPGVGVDYWIWSLQLSGIGTTLTGINFFVTILKMRAPGMTMFKMPVFTWASLCANVLIIASFPILTVTVALLTLDRYLGTHFFTNDMGGNMMMYINLIWAWGHPEVYILILPVFGVFSEIAATFSRKRLFGYTSLVWATVCITVLSFIVWLHHFFTMGAGANVNAFFGITTMIIAIPTGVKIFNWLFTMYQGRIVFHSAMLWTIGFIVTFSVGGMTGVLLAVPGADFVLHNSLFLIAHFHNVIIGGVVFGCFAGMTYWWPKAFGFKLNETWGKRAFWFWIIGFFVAFMPLYALGFMGMTRRLSQQIDPQFHTMLMIAASGAVLIALGILCLVIQMYVSIRDRDQNRDLTGDPWGGRTLEWATSSPPPFYNFAVVPHVHERDAFWEMKEKGEAYKKPDHYEEIHMPKNSGAGIVIAAFSTIFGFAMIWHIWWLAIVGFAGMIITWIVKSFDEDVDYYVPVAEIEKLENQHFDEITKAGLKNGN | 2 | –
5 | MdtB (natural protein) MQVLPPSSTGGPSRLFIMRPVATTLLMVAILLAGIIGYRALPVSALPEVDYPTIQVVTLYPGASPDVMTSAVTAPLERQFGQMSGLKQMSSQSSGGASVITLQFQLTLPLDVAEQEVQAAINAATNLLPSDLPNPPVYSKVNPADPPIMTLAVTSTAMPMTQVEDMVETRVAQKISQISGVGLVTLSGGQRPAVRVKLNAQAIAALGLTSETVRTAITGANVNSAKGSLDGPSRAVTLSANDQMQSAEEYRQLIIAYQNGAPIRLGDVATVEQGAENSWLGAWANKEQAIVMNVQRQPGANIISTADSIRQMLPQLTESLPKSVKVTVLSDRTTNIRASVDDTQFELMMAIALVVMIIYLFLRNIPATIIPGVAVPLSLIGTFAVMVFLDFSINNLTLMALTIATGFVVDDAIVVIENISRYIEKGEKPLAAALKGAGEIGFTIISLTFSLIAVLIPLLFMGDIVGRLFREFAITLAVAILISAVVSLTLTPMMCARMLSQESLRKQNRFSRASEKMFDRIIAAYGRGLAKVLNHPWLTLSVALSTLLLSVLLWVFIPKGFFPVQDNGIIQGTLQAPQSSSFANMAQRQRQVADVILQDPAVQSLTSFVGVDGTNPSLNSARLQINLKPLDERDDRVQKVIARLQTAVDKVPGVDLFLQPTQDLTIDTQVSRTQYQFTLQATSLDALSTWVPQLMEKLQQLPQLSDVSSDWQDKGLVAYVNVDRDSASRLGISMADVDNALYNAFGQRLISTIYTQANQYRVVLEHNTENTPGLAALDTIRLTSSDGGVVPLSSIAKIEQRFAPLSINHLDQFPVTTISFNVPDNYSLGDAVQAIMDTEKTLNLPVDITTQFQGSTLAFQSALGSTVWLIVAAVVAMYIVLGILYESFIHPITILSTLPTAGVGALLALLIAGSELDVIAIIGIILLIGIVKKNAIMMIDFALAAEREQGMSPREAIYQACLLRFRPILMTTLAALLGALPLMLSTGVGAELRRPLGIGMVGGLIVSQVLTLFTTPVIYLLFDRLALWTKSRFARHEEEA | 2 | –
6 | ExbB (natural protein) MGNNLMQTDLSVWGMYQHADIVVKCVMIGLILASVVTWAIFFSKSVEFFNQKRRLKREQQLLAEARSLNQANDIAADFGSKSLSLHLLNEAQNELELSEGSDDNEGIKERTSFRLERRVAAVGRQMGRGNGYLATIGAISPFVGLFGTVWGIMNSFIGIAQTQTTNLAVVAPGIAEALLATAIGLVAAIPAVVIYNVFARQIGGFKAMLGDVAAQVLLLQSRDLDLEASAAAHPVRVAQKLRAG | 5 | –
7 | adenine nucleotide translocase 1 (natural protein) MSDQALSFLKDFLAGGVAAAISKTAVAPIERVKLLLQVQHASKQISAEKQYKGIIDCVVRIPKEQGFLSFWRGNLANVIRYFPTQALNFAFKDKYKQIFLGGVDRHKQFWRYFAGNLASGGAAGATSLCFVYPLDFARTRLAADVGKGAAQREFTGLGNCITKIFKSDGLRGLYQGFNVSVQGIIIYRAAYFGVYDTAKGMLPDPKNVHIIVSWMIAQTVTAVAGLVSYPFDTVRRRMMMQSGRKGADIMYTGTVDCWRKIAKDEGPKAFFKGAWSNVLRGMGGAFVLVLYDEIKKFV | 2 | –
